Experimental data: US10442866 (BEIJING MABWORKS BIOTECH, dated 2019)
Numbering of substitutions follows the chain as printed. Values belong to the binder of their own block, whether it stands above or below them.

Key:
[1] = biological target: T1, human DR6 (TNFRSF21, Sino Biological, Cat#: 10175-H08H) (human, UniProt O75509 42-349); assay: ELISA on coated recombinant human TNFRSF protein, OD450
T1 construct: bought recombinant protein
T1 sequence (looked up): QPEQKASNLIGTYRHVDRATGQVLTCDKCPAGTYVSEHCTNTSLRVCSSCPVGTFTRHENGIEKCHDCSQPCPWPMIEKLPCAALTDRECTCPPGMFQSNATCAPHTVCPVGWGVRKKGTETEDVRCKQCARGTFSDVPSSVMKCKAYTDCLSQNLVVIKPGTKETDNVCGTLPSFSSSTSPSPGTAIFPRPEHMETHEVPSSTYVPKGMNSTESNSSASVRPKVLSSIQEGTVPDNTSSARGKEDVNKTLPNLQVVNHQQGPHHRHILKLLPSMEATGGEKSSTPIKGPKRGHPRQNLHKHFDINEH
Method: (§1) ELISA assays were performed to determine the binding specificity of anti-OX40 antibodies to human OX40, in comparison to other human TNFRSF members with homologous amino acid sequences, following the protocol described in Example 2.

[2] = biological target: T2, human NGFR (TNFRSF16, Sino Biological, Cat#: 13184-H08H) (human, UniProt P08138 29-250); assay: as above
T2 construct: bought recombinant protein
T2 sequence (looked up): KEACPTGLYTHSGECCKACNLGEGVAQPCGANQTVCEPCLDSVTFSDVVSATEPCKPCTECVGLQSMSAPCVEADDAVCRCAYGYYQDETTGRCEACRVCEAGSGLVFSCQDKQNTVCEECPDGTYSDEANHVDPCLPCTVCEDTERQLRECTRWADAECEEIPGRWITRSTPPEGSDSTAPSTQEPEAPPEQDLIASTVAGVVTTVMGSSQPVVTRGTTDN
Method: as §1

[3] = biological target: T3, human CD40-his (TNFRSF5, Sino Biological, Cat#:10774-H08H) (human, UniProt P25942 21-193); assay: as above
T3 construct: bought protein; also called recombinant human CD40 (TNFRSF5); not shown: His tag
T3 sequence (P25942 21-193 limits assumed): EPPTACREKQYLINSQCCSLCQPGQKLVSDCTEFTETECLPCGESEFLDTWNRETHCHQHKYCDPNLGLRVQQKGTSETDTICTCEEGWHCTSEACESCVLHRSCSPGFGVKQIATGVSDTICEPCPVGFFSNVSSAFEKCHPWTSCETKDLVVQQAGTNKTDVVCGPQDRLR
Method: as §1

[4] = biological target: T4, human HVEM-mFc (TNFRSF14, ACRO, Cat#: HVM-H5255) (human, UniProt Q92956 39-202); assay: as above
T4 construct: bought protein; also called HVEM(TNFRSF14); not shown: mouse Fc (mFc)
T4 sequence (looked up): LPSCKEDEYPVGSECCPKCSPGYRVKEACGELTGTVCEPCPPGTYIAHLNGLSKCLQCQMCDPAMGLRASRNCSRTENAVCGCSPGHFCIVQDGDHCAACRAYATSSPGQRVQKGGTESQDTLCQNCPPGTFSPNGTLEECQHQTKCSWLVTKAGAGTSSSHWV
Method: as §1

[5] = biological target: T5, human 4-1BB (TNFRSF9, ACRO, Cat#:41B-H522a) (human, UniProt Q07011 24-186); assay: as above
T5 construct: bought recombinant protein
Method: as §1

[6] = biological target: T6, rhesus OX40 expressed on HEK293A cells (rhesus, UniProt P43489 29-277 (human entry)); assay: FACS on HEK293A/rhesus OX40 cells, MFI (panel without title; monkey OX40 by the legend)
T6 construct: also called HEK293A/rhOX40; HEK293A/rhesusOX40 cells
T6 chain: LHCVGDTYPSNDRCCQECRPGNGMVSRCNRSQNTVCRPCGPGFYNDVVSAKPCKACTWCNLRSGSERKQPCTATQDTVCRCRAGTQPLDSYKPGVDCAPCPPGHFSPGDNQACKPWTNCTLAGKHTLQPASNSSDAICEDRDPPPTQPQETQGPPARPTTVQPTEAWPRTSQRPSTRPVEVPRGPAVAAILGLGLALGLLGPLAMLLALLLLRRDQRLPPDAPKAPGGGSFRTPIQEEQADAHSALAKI
Method: Briefly, 10^5 HEK293A cells were seeded into each well of the 96-well plates and serially diluted anti-OX40 antibodies were added to the plates. After incubated at 4° C. for 1 hour, plates were washed 3 times with PBST. Then, an APC coupled Goat Anti-Mouse IgG (BioLegen, US, Cat#: 405308) diluted 500× was added to the plates. After incubation at 4° C. for 1 hour, the plates were washed with PBS for 3 times and then cell fluorescence was monitored using a FACS machine (BD).
Example 15 Humanized Anti-OX40 Antibodies Bound to Human or Rhesus OX40 Expressed on HEK293A Cells The humanized anti-OX40 antibodies were also tested for their ability of binding to HEK293A/huOX40 cells or HEK293A/rhOX40 cells, following the FACS analysis protocol as described in Example 5.

[7] = biological target: T7, recombinant human OX40-his (Sino Biological, Cat#:10481-H03H) (human, UniProt P43489 29-214); assay: SPR Biacore 8K, OX40-His on chip, antibody injected
T7 construct: bought protein; also called hOX40-his; not shown: His tag
T7 sequence: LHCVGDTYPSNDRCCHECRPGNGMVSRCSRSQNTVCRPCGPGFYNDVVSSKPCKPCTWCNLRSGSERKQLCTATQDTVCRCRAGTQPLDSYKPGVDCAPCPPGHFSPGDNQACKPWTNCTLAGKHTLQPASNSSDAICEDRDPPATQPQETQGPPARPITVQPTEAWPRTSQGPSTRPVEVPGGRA
Method: SPR assays were used to determine the binding affinity of the chimetic or humanized anti-OX40 antibodies to human OX40 with the BIAcore™ 8K instrument (GE Life Sciences). Briefly, 100-200 response units (RU) of human OX40-His protein (Sino Biological, CN, Cat#:10481-H03H, Lot no.: MA08MA3003) were coupled to CM5 biosensor chips (Cat#: BR-1005-30, GE Life Sciences), followed by blocking of un-reacted groups with 1M ethanolamine. Serially diluted antibodies at concentrations ranging from 0.3 µM to 10 µM were injected into the SPR running buffer (HBS-EP buffer, pH7.4, GE Life Sciences; US; Cat#:BR-1006-69) at 30 µL/minute. The binding capacitity was calculated with the RUs of blank controls subtracted. The association rate (k_a) and dissociation rate (k_d) were calculated using the one-to-one Langmuir binding model (BIA Evaluation Software, GE Life Sciences). The equilibrium dissociation constant K_D was calculated as the k_d/k_a ratio.

binding result [6]: binds
Kd [7]: 1.96 nM
koff [7]: 0.000927 s⁻¹
kon [7]: 473000 M⁻¹ s⁻¹
B1: 68C8-VH2VL3 (antibody, human IgG1, kappa, V domains shown)
VH: QVQLVQSGAEVKKPGASVKVSCKVSGDTFTSYWITWVRQRPGKGLEWMGDIHPGSGSTNNNEKFKNRVTMTVDTSTDTAYMELSSLRSEDTAVYYCATLRPYYFVYWGQGTLVTVSS
VL: DIQMTQSPSSLSASVGDRVTITCRASQDISNYLNWYQQKPGKTVKLLIYYTSRLLSGVPSRFSGSGSGTDYTLTISSLQPEDFATYFCQQGNTLPLTFGQGTRLEIKR
notes: humanized; also called 68C8-H2L3; 68C8H2L3
binding result [1]: no binding (tested: about 10000 ng/mL (log about 4))
binding result [2]: no binding (tested: about 10000 ng/mL (log about 4))
binding result [3]: no binding (tested: about 10000 ng/mL (log about 4))
binding result [4]: no binding (tested: about 10000 ng/mL (log about 4))
binding result [5]: no binding (tested: about 10000 ng/mL (log about 4))

binding result [6]: binds
Kd [7]: 4.57 nM
koff [7]: 0.00198 s⁻¹
kon [7]: 434000 M⁻¹ s⁻¹
B2: 71H8-VH2VL3 (antibody, human IgG1, kappa, V domains shown)
VH: B1 VH with D27Y, H52Y, N60Q, N66S
VL: B1 VL
notes: humanized; also called 71H8-H2L3; 71H8H2L3
binding result [1]: no binding (tested: about 10000 ng/mL (log about 4))
binding result [2]: no binding (tested: about 10000 ng/mL (log about 4))
binding result [3]: no binding (tested: about 10000 ng/mL (log about 4))
binding result [4]: no binding (tested: about 10000 ng/mL (log about 4))
binding result [5]: no binding (tested: about 10000 ng/mL (log about 4))
